This note sets out measurements from US20160297884A1.

Changes are numbered by the printed parent chain. Numbers in names are those of the source.

The target in experiment [1] is B-cell maturation antigen (BCMA) (human) (UniProt Q02223). In words: cell-based or functional assay.
Experiment [2] addresses BCMA expressed on MM1S cells (human) (UniProt Q02223). The experiment is described as follows: cell-based or functional assay.

Sequence of B-cell maturation antigen (BCMA) (human) (Q02223 whole entry): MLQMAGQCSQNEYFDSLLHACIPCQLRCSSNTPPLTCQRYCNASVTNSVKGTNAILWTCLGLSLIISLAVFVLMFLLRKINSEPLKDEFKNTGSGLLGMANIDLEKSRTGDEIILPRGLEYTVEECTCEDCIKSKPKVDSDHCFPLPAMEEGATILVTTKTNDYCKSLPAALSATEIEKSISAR
Sequence of BCMA expressed on MM1S cells (human) (Q02223 whole entry): as above

B1: COM22-V1 (protein)
chain: EVQLLESGGGLVQPGGSLRLSCAASGFTFSSYAMNWVRQAPGKGLEWVSAISDSGGSRWYADSVKGRFTISRDNSKNTLYLQMNSLRAEDTAVYYCTRYWPMDIWGQGTLVTVSSGGGGSGGGGSGGGGSEIVLTQSPGTLSLSPGERATLSCRASVRVSSTYLAWYQQKPGQAPRLLMYDASIRATGIPDRFSGSGSGTDFTLTISRLEPEDFAVYYCQQYMKWPLTFGQGTKVEIKGLAVSTISSFFPPGYQIYIWAPLAGTCGVLLLSLVITLYCKRGRKKLLYIFKQPFMRPVQTTQEEDGCSCRFPEEEEGGCELRVKFSRSADAPAYQQGQNQLYNELNLGRREEYDVLDKRRGRDPEMGGKPRRKNPQEGLYNELQKDKMAEAYSEIGMKGERRRGKGHDGLYQGLSTATKDTYDALHMQALPPR
As to B1, in experiment [1], the % CD107a+ (in CD8+) (degranulation, MM1S cells, Donor 3) worked out at 76.1% and the MFI CD107a+ (degranulation, MM1S cells, Donor 3) is 2220 MFI.

B2: P5A-V1 (protein)
chain: B1 chain with R58T, W59Y, T97A, V157Q, R158S, T162S, M223G, K224S
In the case of B2, in experiment [1], the % CD107a+ (in CD8+) (degranulation, MM1S cells, Donor 2) was found to be 77.6% and the MFI CD107a+ (degranulation, MM1S cells, Donor 2) came to 2670 MFI.

B3: P5AC16-V1 (protein)
chain: B1 chain with S54F, R58T, W59Y, T97A, V157Q, R158S, S161D, T162L, M223Q, K224T
In experiment [1], B3 yielded a % CD107a+ (in CD8+) (degranulation, MM1S cells, Donor 2) of 61.6% and an MFI CD107a+ (degranulation, MM1S cells, Donor 2) of 1860 MFI.

B4: PC1C12-V1 (protein)
chain: EVQLLESGGGLVQPGGSLRLSCAASGFTFSSYPMSWVRQAPGKGLEWVSAIGGSGGWSYYADSVKGRFTISRDNSKNTLYLQMNSLRAEDTAVYYCARYWPMDSWGQGTLVTVSSGGGGSGGGGSGGGGSEIVLTQSPGTLSLSPGERATLSCWLSQSVSSTYLAWYQQKPGQAPRLLIYDASSRAPGIPDRFSGSGSGTDFTLTISRLEPEDFAVYYCQQYSEWPLTFGQGTKVEIKGLAVSTISSFFPPGYQIYIWAPLAGTCGVLLLSLVITLYCKRGRKKLLYIFKQPFMRPVQTTQEEDGCSCRFPEEEEGGCELRVKFSRSADAPAYQQGQNQLYNELNLGRREEYDVLDKRRGRDPEMGGKPRRKNPQEGLYNELQKDKMAEAYSEIGMKGERRRGKGHDGLYQGLSTATKDTYDALHMQALPPR
Consider B4, for which, in experiment [1], the % CD107a+ (in CD8+) (degranulation, MM1S cells, Donor 3) stood at 68.2% and the MFI CD107a+ (degranulation, MM1S cells, Donor 3) turned out to be 1960 MFI.

B5: PC1-V1 (protein)
chain: B4 chain with W57S, S58T, W154R, L155A, E224T, W225S
Consider B5, for which, in experiment [1], the % CD107a+ (in CD8+) (degranulation, MM1S cells, Donor 3) came out at 75.6% and the MFI CD107a+ (degranulation, MM1S cells, Donor 3) was 2180 MFI.

B6: P6AP-V1 (protein)
chain: EVQLLESGGGLVQPGGSLRLSCAASGFTFGSYAMTWVRQAPGKGLEWVSAISGSGGNTFYADSVKGRFTISRDNSKNTLYLQMNSLRAEDTAVYYCARVSPIAAPMDYWGQGTLVTVSSGGGGSGGGGSGGGGSEIVLTQSPGTLSLSPGERATLSCRASQLGSFYLAWYQQKPGQAPRLLIYGASSRATGIPDRFSGSGSGTDFTLTISRLEPEDFAVYYCQHYNYPPSFTFGQGTKVEIKGLAVSTISSFFPPGYQIYIWAPLAGTCGVLLLSLVITLYCKRGRKKLLYIFKQPFMRPVQTTQEEDGCSCRFPEEEEGGCELRVKFSRSADAPAYQQGQNQLYNELNLGRREEYDVLDKRRGRDPEMGGKPRRKNPQEGLYNELQKDKMAEAYSEIGMKGERRRGKGHDGLYQGLSTATKDTYDALHMQALPPR
As for B6, in experiment [2], the % CD107a+ (in CD8+) (degranulation, Donor 1, co-culture with MM1S) stood at 46.4% and the MFI CD107a+ (degranulation, CD8+ T cells, Donor 1, co-culture with MM1S) is 1850 MFI.

B7: P5AC1-V1 (protein)
chain: EVQLLESGGGLVQPGGSLRLSCAASGFTFSSYAMNWVRQAPGKGLEWVSAILSSGGSTYYADSVKGRFTISRDNSKNTLYLQMNSLRAEDTAVYYCARYWPMDIWGQGTLVTVSSGGGGSGGGGSGGGGSEIVLTQSPGTLSLSPGERATLSCRGGQSVSSSYLAWYQQKPGQAPRLLMYDASIRATGIPDRFSGSGSGTDFTLTISRLEPEDFAVYYCQQYQSWPLTFGQGTKVEIKGLAVSTISSFFPPGYQIYIWAPLAGTCGVLLLSLVITLYCKRGRKKLLYIFKQPFMRPVQTTQEEDGCSCRFPEEEEGGCELRVKFSRSADAPAYQQGQNQLYNELNLGRREEYDVLDKRRGRDPEMGGKPRRKNPQEGLYNELQKDKMAEAYSEIGMKGERRRGKGHDGLYQGLSTATKDTYDALHMQALPPR
For the molecule B7, in experiment [1], the % CD107a+ (in CD8+) (degranulation, MM1S cells, Donor 2) was 68.6% and the MFI CD107a+ (degranulation, MM1S cells, Donor 2) is 2190 MFI.
